Test results taken from KR20230038028A (dated 2023).

What was measured:
Assay in all cases: western blot of E. coli lysate supernatant
His-S2p2(서열 686~1207) = target: T1, His-S2p2(서열 686~1207) (SARS-CoV-2, UniProt P0DTC2 686-1207)
T1 construct: range 686-1207

S2p2-2(서열 686~1144) = target: T2, S2p2-2(서열 686~1144) (SARS-CoV-2, UniProt P0DTC2 686-1144)
T2 construct: range 686-1144

[1] = target: T3, His-S2p2-1(서열 686~1177 아미노산) (SARS-CoV-2, UniProt P0DTC2 686-1177)
T3 construct: range 686-1177

Measured: binding result

B1: 항-스파이크2(Spike2, S2) 단일클론 항체 4A5 (antibody, V domains shown)
VH: QVKLEQSGPGILQPSQTLSLTCSFSGFSLSTSGMGVSWIRQSSGKGLEWLTHIYWDDDKRYNPSLKSRLTISKDTSRNQVFLKITSVDTADTATYYCARRRMITGLYYAMDYWGQGTSVTVSS
VL: DIVMTQSTLSLPVSFGDQVSISCRSSQSLANSYGITYLSWYLHKPGQSPQLLIYGISNRFSGVPDRFSGSGSGTDFTLKISTIKPEDLGMYYCLQGTHQPWTFGGGTKLEIKR
notes: also called 4A5 항체; 항-S2 항체 4A5
binds: His-S2p2(서열 686~1207) | S2p2-2(서열 686~1144) | [1]
